These results are taken from paper PMC5107993, “Glutathione-conjugating and membrane-remodeling activity of GDAP1 relies on amphipathic C-terminal domain” (Scientific Reports, 2016).

The stoichiometry N is the number of molecules, sites or subunits per partner or assembly.

The series deals with the molecule itself. Kind of series: SEC; Superdex 200 10/300 in 20 mM Tris pH 8.0, 100 mM NaCl, 1 mM DTT, 1 mM EDTA; peak fractions re-chromatographed under identical conditions; monomer to dimer. In general terms: Size exclusion chromatography separates by hydrodynamic size, large species first.

B1: GDAP1 T288X-6xHis (domain or fragment, human, UniProt Q8TB36 1-287, looked up)
chain: MAERQEEQRGSPPLRAEGKADAEVKLILYHWTHSFSSQKVRLVIAEKALKCEEHDVSLPLSEHNEPWFMRLNSTGEVPVLIHGENIICEATQIIDYLEQTFLDERTPRLMPDKESMYYPRVQHYRELLDSLPMDAYTHGCILHPELTVDSMIPAYATTRIRSQIGNTESELKKLAEENPDLQEAYIAKQKRLKSKLLDHDNVKYLKKILDELEKVLDQVETELQRRNEETPEEGQQPWLCGESFTLADVSLAVTLHRLKFLGFARRNWGNGKRPNLETYYERVLKRK
notes: GDAP1, human (recombinant human GDAP1), truncated by a stop in place of T288 (T288X), lacks TMD and HD1; cloned into vector pFL of the MultiBac system; not shown: His6, C-terminal, kept
On to B1, for which the “stoichiometry N” value was 2.

B2: GDAP1 T318X-6xHis (domain or fragment, human, UniProt Q8TB36 1-317, looked up)
chain: MAERQEEQRGSPPLRAEGKADAEVKLILYHWTHSFSSQKVRLVIAEKALKCEEHDVSLPLSEHNEPWFMRLNSTGEVPVLIHGENIICEATQIIDYLEQTFLDERTPRLMPDKESMYYPRVQHYRELLDSLPMDAYTHGCILHPELTVDSMIPAYATTRIRSQIGNTESELKKLAEENPDLQEAYIAKQKRLKSKLLDHDNVKYLKKILDELEKVLDQVETELQRRNEETPEEGQQPWLCGESFTLADVSLAVTLHRLKFLGFARRNWGNGKRPNLETYYERVLKRKTFNKVLGHVNNILISAVLPTAFRVAKKRAP
notes: GDAP1, human (recombinant human GDAP1), truncated by a stop in place of T318 (T318X), lacks the TMD, keeps HD1; cloned into vector pFL of the MultiBac system; the methods print the name as T3188X; also called GDAP1 T3188X; not shown: His6, C-terminal, kept
As for B2, the “stoichiometry N” value came to 2.
